This is an account of results in article PMC4377584, “Sestrin2 inhibits mTORC1 through modulation of GATOR complexes” (Scientific Reports, 2015).

The test concerns the target T1, HA-GATOR2 (UniProt Q9NXC5 1-875; Q96S15 1-790; Q6PJI9 1-974; Q96EE3 1-360; P55735 1-322).
T1 construct: MIOS; WDR24; WDR59; SEH1L; SEC13; that every subunit carried the HA tag is read from the name HA-GATOR2; also called immunopurified GATOR2 protein components; purified GATOR2; source: HEK293, transfected, immunopurified (anti-HA agarose beads, HA peptide); copies: + + + +
Put plainly: pull-down; in vitro: purified proteins mixed in 20 ul buffer A (30 mM Tris-HCl pH8.0, 100 mM NaCl, 1 mM TCEP), incubated overnight with antibodies against the target protein, protein G/A bead, immunoblot; 1 ug Sestrin2; in Fig. 2D GATOR1 pulled down with NPRL2 antibody and detection with HA antibody. As to conditions: both partners purified. Background: Immunoblotting shows a protein as a band on a membrane.

B1: Recombinant Sestrin2 (natural protein, UniProt P58004 1-480, looked up)
chain: MIVADSECRAELKDYLRFAPGGVGDSGPGEEQRESRARRGPRGPSAFIPVEEVLREGAESLEQHLGLEALMSSGRVDNLAVVMGLHPDYFTSFWRLHYLLLHTDGPLASSWRHYIAIMAAARHQCSYLVGSHMAEFLQTGGDPEWLLGLHRAPEKLRKLSEINKLLAHRPWLITKEHIQALLKTGEHTWSLAELIQALVLLTHCHSLSSFVFGCGILPEGDADGSPAPQAPTPPSEQSSPPSRDPLNNSGGFESARDVEALMERMQQLQESLLRDEGTSQEEMESRFELEKSESLLVTPSADILEPSPHPDMLCFVEDPTFGYEDFTRRGAQAPPTFRAQDYTWEDHGYSLIQRLYPEGGQLLDEKFQAAYSLTYNTIAMHSGVDTSVLRRAIWNYIHCVFGIRYDDYDYGEVNQLLERNLKVYIKTVACYPEKTTRRMYNLFWRHFRHSEKVHVNLLLLEARMQAALLYALRAITRYMT
notes: Full-length Sestrin2 cDNA; also called Sestrin2 protein; purified Sestrin2; source: Rosetta (DE3) pLysS E. coli, purified (Ni-NTA, amylase resin, TEV, HiTrap Q, Superdex 200); not shown: His6, N-terminal, cleaved; MBP, N-terminal, cleaved
As for B1, the binding result was “binds”.
